# Results published in the supplement of paper PMC6757056.
# ± gives the standard deviation of the averaged measurements.
# B1: library; a variant is named by its letters at N, in order (parent)
# chain: GCUGUCACCGGUGCUUGGUACGUUAUAUUCAGCCGGUCUGAUGAGUCUNNNNNNAGACGAAACAGC
# Tests used:
# (6R,S)-folinic acid [1] = variants of: B1; test: normalized RNA/DNA level without ligand (relative to sTRSVctl = 100) (log10 (% of sTRSVctl)); HEK293T overexpressing SLC46A1; higher = less ribozyme self-cleavage, higher mRNA level; conditions: without (6R,S)-folinic acid; ligand present: no
# How it was run: (§1)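 For each 6-well well, 4 µg of library plasmid encoding mCherry-linked ribozyme switches, or eGFP-linked ones in some ligand experiments, was transfected into HEK293T. Any ligand was added 1 h before transfection, and RNA was extracted with EDTA 72 h after it, then reverse-transcribed, amplified, barcoded and sequenced. RNA level was obtained by dividing RNA reads by DNA reads, normalizing to a spiked-in non-cleaving sequence or to the top sequences, then scaling and log-transforming. The top set was 25 sequences, scaling was ×100 with log10, and ≥100 DNA reads were required.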
# (6R,S)-folinic acid [2] = variants of: B1; test: normalized RNA/DNA level with ligand (relative to sTRSVctl = 100) (log10 (% of sTRSVctl)); HEK293T overexpressing SLC46A1; ligand concentration (+) RNA-Seq: 6 mM; higher = less ribozyme self-cleavage, higher mRNA level; conditions: with (6R,S)-folinic acid; ligand present: yes
# How it was run: as §1
Variant,"normalized RNA/DNA level without ligand (log10) ((6R,S)-folinic acid [1])","normalized RNA/DNA level with ligand (log10) ((6R,S)-folinic acid [2])"
GCUGUCACCGGUGCUUGGUACGUUAUAUUCAGCCGGUCUGAUGAGUCUGUAGGUAGACGAAACAGC [GUAGGU],1.998 ± 0.013,2.04 ± 0.03
GCUGUCACCGGUGCUUGGUACGUUAUAUUCAGCCGGUCUGAUGAGUCUGUAGGCAGACGAAACAGC [GUAGGC],1.881 ± 0.011,2.0344 ± 0.00079
GCUGUCACCGGUGCUUGGUACGUUAUAUUCAGCCGGUCUGAUGAGUCUGUAGGAAGACGAAACAGC [GUAGGA],1.946 ± 0.0025,2 ± 0.047
GCUGUCACCGGUGCUUGGUACGUUAUAUUCAGCCGGUCUGAUGAGUCUUUAGGUAGACGAAACAGC [UUAGGU],1.942 ± 0.0098,1.971 ± 0.016
GCUGUCACCGGUGCUUGGUACGUUAUAUUCAGCCGGUCUGAUGAGUCUAUAUAAAGACGAAACAGC [AUAUAA],1.956 ± 0.0059,1.96 ± 0.032
GCUGUCACCGGUGCUUGGUACGUUAUAUUCAGCCGGUCUGAUGAGUCUUUAGCUAGACGAAACAGC [UUAGCU],2.007 ± 0.0056,2.02 ± 0.047
GCUGUCACCGGUGCUUGGUACGUUAUAUUCAGCCGGUCUGAUGAGUCUUUAGCGAGACGAAACAGC [UUAGCG],1.896 ± 0.0052,1.98 ± 0.032
GCUGUCACCGGUGCUUGGUACGUUAUAUUCAGCCGGUCUGAUGAGUCUUUAGCCAGACGAAACAGC [UUAGCC],2.013 ± 0.0037,1.99 ± 0.026
GCUGUCACCGGUGCUUGGUACGUUAUAUUCAGCCGGUCUGAUGAGUCUAUAGAAAGACGAAACAGC [AUAGAA],1.937 ± 0.0051,1.98 ± 0.028
GCUGUCACCGGUGCUUGGUACGUUAUAUUCAGCCGGUCUGAUGAGUCUAUAGUUAGACGAAACAGC [AUAGUU],1.9853 ± 0.0008,2.009 ± 0.01
GCUGUCACCGGUGCUUGGUACGUUAUAUUCAGCCGGUCUGAUGAGUCUAUAGUCAGACGAAACAGC [AUAGUC],2.056 ± 0.0045,2.03 ± 0.033
GCUGUCACCGGUGCUUGGUACGUUAUAUUCAGCCGGUCUGAUGAGUCUGUAGACAGACGAAACAGC [GUAGAC],1.911 ± 0.0045,2.003 ± 0.01
GCUGUCACCGGUGCUUGGUACGUUAUAUUCAGCCGGUCUGAUGAGUCUUUAGACAGACGAAACAGC [UUAGAC],2 ± 0.01,2.01 ± 0.041
GCUGUCACCGGUGCUUGGUACGUUAUAUUCAGCCGGUCUGAUGAGUCUUUAGAUAGACGAAACAGC [UUAGAU],1.946 ± 0.012,1.99 ± 0.021
GCUGUCACCGGUGCUUGGUACGUUAUAUUCAGCCGGUCUGAUGAGUCUAUAGCUAGACGAAACAGC [AUAGCU],2 ± 0.016,2 ± 0.046
GCUGUCACCGGUGCUUGGUACGUUAUAUUCAGCCGGUCUGAUGAGUCUUUAGUUAGACGAAACAGC [UUAGUU],1.972 ± 0.0056,1.97 ± 0.052
GCUGUCACCGGUGCUUGGUACGUUAUAUUCAGCCGGUCUGAUGAGUCUUUAGUCAGACGAAACAGC [UUAGUC],2.031 ± 0.0018,2.024 ± 0.0089
GCUGUCACCGGUGCUUGGUACGUUAUAUUCAGCCGGUCUGAUGAGUCUUUAGUGAGACGAAACAGC [UUAGUG],1.759 ± 0.012,1.962 ± 0.012
GCUGUCACCGGUGCUUGGUACGUUAUAUUCAGCCGGUCUGAUGAGUCUUUAGUAAGACGAAACAGC [UUAGUA],1.9501 ± 0.0015,1.98 ± 0.026
GCUGUCACCGGUGCUUGGUACGUUAUAUUCAGCCGGUCUGAUGAGUCUGUAUAAAGACGAAACAGC [GUAUAA],1.96 ± 0.014,1.99 ± 0.006
GCUGUCACCGGUGCUUGGUACGUUAUAUUCAGCCGGUCUGAUGAGUCUCUAUAAAGACGAAACAGC [CUAUAA],1.984 ± 0.0043,1.978 ± 0.0033

Variant,"normalized RNA/DNA level without ligand (log10) ((6R,S)-folinic acid [1])","normalized RNA/DNA level with ligand (log10) ((6R,S)-folinic acid [2])"
GCUGUCACCGGUGCUUGGUACGUUAUAUUCAGCCGGUCUGAUGAGUCUCUAGGAAGACGAAACAGC [CUAGGA],2.016 ± 0.0053,2.01 ± 0.047
GCUGUCACCGGUGCUUGGUACGUUAUAUUCAGCCGGUCUGAUGAGUCUCUAGGGAGACGAAACAGC [CUAGGG],1.882 ± 0.017,2.02 ± 0.028
GCUGUCACCGGUGCUUGGUACGUUAUAUUCAGCCGGUCUGAUGAGUCUGUAGUAAGACGAAACAGC [GUAGUA],1.9662 ± 0.0006,1.98 ± 0.025
GCUGUCACCGGUGCUUGGUACGUUAUAUUCAGCCGGUCUGAUGAGUCUGUAGUCAGACGAAACAGC [GUAGUC],2.038 ± 0.0078,2.03 ± 0.032
GCUGUCACCGGUGCUUGGUACGUUAUAUUCAGCCGGUCUGAUGAGUCUGUAGUUAGACGAAACAGC [GUAGUU],2.003 ± 0.0023,2.02 ± 0.021
GCUGUCACCGGUGCUUGGUACGUUAUAUUCAGCCGGUCUGAUGAGUCUAUAGGAAGACGAAACAGC [AUAGGA],1.91 ± 0.022,1.99 ± 0.053
GCUGUCACCGGUGCUUGGUACGUUAUAUUCAGCCGGUCUGAUGAGUCUCUAGUGAGACGAAACAGC [CUAGUG],2 ± 0.028,2.03 ± 0.014
GCUGUCACCGGUGCUUGGUACGUUAUAUUCAGCCGGUCUGAUGAGUCUCUAGUAAGACGAAACAGC [CUAGUA],1.996 ± 0.015,2 ± 0.034
GCUGUCACCGGUGCUUGGUACGUUAUAUUCAGCCGGUCUGAUGAGUCUCUAGUUAGACGAAACAGC [CUAGUU],2.064 ± 0.0034,2.03 ± 0.041
GCUGUCACCGGUGCUUGGUACGUUAUAUUCAGCCGGUCUGAUGAGUCUCUAGUCAGACGAAACAGC [CUAGUC],2.081 ± 0.0096,2.025 ± 0.015
GCUGUCACCGGUGCUUGGUACGUUAUAUUCAGCCGGUCUGAUGAGUCUCUAGACAGACGAAACAGC [CUAGAC],1.98 ± 0.017,1.986 ± 0.015
GCUGUCACCGGUGCUUGGUACGUUAUAUUCAGCCGGUCUGAUGAGUCUCUAGAAAGACGAAACAGC [CUAGAA],1.992 ± 0.016,2.018 ± 0.016
GCUGUCACCGGUGCUUGGUACGUUAUAUUCAGCCGGUCUGAUGAGUCUCUAGAGAGACGAAACAGC [CUAGAG],1.92 ± 0.035,2.02 ± 0.042
GCUGUCACCGGUGCUUGGUACGUUAUAUUCAGCCGGUCUGAUGAGUCUGUAGCGAGACGAAACAGC [GUAGCG],1.93 ± 0.023,2.01 ± 0.036
GCUGUCACCGGUGCUUGGUACGUUAUAUUCAGCCGGUCUGAUGAGUCUGUAGCCAGACGAAACAGC [GUAGCC],2.021 ± 0.016,2.051 ± 0.0086
GCUGUCACCGGUGCUUGGUACGUUAUAUUCAGCCGGUCUGAUGAGUCUGUAGCAAGACGAAACAGC [GUAGCA],1.973 ± 0.0074,2 ± 0.022
GCUGUCACCGGUGCUUGGUACGUUAUAUUCAGCCGGUCUGAUGAGUCUCUAGCUAGACGAAACAGC [CUAGCU],2.033 ± 0.0023,1.993 ± 0.014
GCUGUCACCGGUGCUUGGUACGUUAUAUUCAGCCGGUCUGAUGAGUCUCUAGCCAGACGAAACAGC [CUAGCC],2.024 ± 0.015,1.98 ± 0.036
GCUGUCACCGGUGCUUGGUACGUUAUAUUCAGCCGGUCUGAUGAGUCUCUAGCAAGACGAAACAGC [CUAGCA],2.038 ± 0.0039,2.041 ± 0.0037
GCUGUCACCGGUGCUUGGUACGUUAUAUUCAGCCGGUCUGAUGAGUCUCUAGCGAGACGAAACAGC [CUAGCG],2.0229 ± 0.0015,2.05 ± 0.042
